Read-outs that look alike come from different tables or passages of the source.
What was measured:
[1] = target: T1, ENAH EVH1 domain (monomeric, wild type) (human, UniProt Q03173 1-111 (mouse entry)); assay: BLI dissociation phase, immobilised SUMO-peptide, ENAH EVH1 domain in solution
T1 construct: ENAH residue numbers in the text count from the Met at position 25 of this entry; also called ENAH EVH1 WT; Mena EVH1 WT

[2] = target: T1, ENAH EVH1 domain (monomeric, wild type); assay: BLI
Procedure: (§1) All BLI experiments were performed with 2 replicates on an Octet Red96 instrument (ForteBio). […] The loaded tips were immersed in a solution of ENAH EVH1 domain at a relevant dilution series in BLI buffer at an orbital shake speed of 1000 rpm and run until the binding signal plateaued. ENAH-bound tips were subsequently placed into BLI buffer only for dissociation and run until the binding signal plateaued. K_D values were obtained through steady state analysis. […] The association phases were then fit to a one-phase binding model in Prism and the equilibrium steady-state binding signal values from that fit were plotted against ENAH concentration and fit to a single-site specific binding model in Prism to obtain dissociation constants. Errors reported are the standard deviation of two replicates.

[3] = target: T1, ENAH EVH1 domain (monomeric, wild type); assay: ITC, SUMO-peptide titrated into ENAH EVH1 domain at 25 °C
Procedure: (§2) ITC experiments were performed with two replicates using a VP-ITC microcalorimeter (MicroCal LLC). To prepare samples for ITC, 2.5 mL of 100 µM ENAH EVH1 domain and 1 mL of 800 µM-1.2 mM of SUMO-peptide fusions were dialyzed against 2 µL of ITC Buffer (20 mM Hepes pH 7.6, 150 mM NaCl, 1 mM TCEP) at 4° C. overnight. The concentrations of proteins were remeasured after dialysis on the day of experiment. SUMO-peptide was titrated into ENAH EVH1 domain at 25° C. Data analysis and curve fitting were performed with the Origin 7.0 software (OriginLab).

[4] = target: T1, ENAH EVH1 domain (monomeric, wild type); assay: BLI, steady state; SUMO-peptide immobilised, EVH1 monomer in solution
Procedure: as §1

[5] = target: T1, ENAH EVH1 domain (monomeric, wild type); assay: ITC
Procedure: as §2

[6] = target: T1, ENAH EVH1 domain (monomeric, wild type); assay: BLI, steady state; SUMO-peptide immobilised, EVH1 monomer in solution; remark: listed apart in the source
Procedure: as §1

[7] = target: T2, ENAH EVH1 domain with Arg47 mutated to Ala (human, UniProt Q03173 1-111 (mouse entry)); assay: as above
T2 construct: also called ENAH R47A; ENAH EVH1 R47A
T2 sequence (Q03173 other isoform, or with tags, fused parts or gaps limits assumed, stated change not applied): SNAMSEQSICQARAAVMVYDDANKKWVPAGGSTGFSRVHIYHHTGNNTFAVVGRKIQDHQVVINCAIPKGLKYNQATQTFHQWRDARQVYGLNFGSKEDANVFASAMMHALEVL
Procedure: as §1

[8] = target: T1, ENAH EVH1 domain (monomeric, wild type); assay: as above; remark: listed apart in the source
Procedure: as §1

[9] = target: T2, ENAH EVH1 domain with Arg47 mutated to …; assay: as above; remark: listed apart in the source
Procedure: as §1

[10] = target: T1, ENAH EVH1 domain (monomeric, wild type); assay: BLI, monomeric EVH1
[11] = target: T1, ENAH EVH1 domain (monomeric, wild type); assay: BLI steady state, immobilised SUMO-peptide, ENAH EVH1 domain in solution
Procedure: (§3) (C) Peptide binding and dissociation curves measured by BLI. Blue, orange, green, red, purple, and brown curves denote EVH1 concentrations in descending order.
as §1

[12] = target: T1, ENAH EVH1 domain (monomeric, wild type); assay: BLI dissociation curves
Procedure: as §3, §1

[13] = target: T1, ENAH EVH1 domain (monomeric, wild type); assay: BLI steady state, immobilised SUMO-PCARE-Dual, EVH1 domain in solution
Procedure: as §3, §1

VASP EVH1 domain [14] = target: T3, VASP EVH1 domain (Homo sapiens (Human), UniProt P50552 1-114); assay: as above
T3 construct: VASP numbering in the text counts from the Met at position 25 of the entry
T3 sequence (P50552 other isoform, or with tags, fused parts or gaps limits assumed): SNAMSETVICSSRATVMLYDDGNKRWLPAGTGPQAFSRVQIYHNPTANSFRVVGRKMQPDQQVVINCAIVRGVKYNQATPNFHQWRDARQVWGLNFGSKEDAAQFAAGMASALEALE
Procedure: as §3, §1

[15] = target: T4, EVL EVH1 domain (wild type) (Mus musculus (Mouse), UniProt P70429 1-116); assay: as above
T4 construct: EVL numbering counts from the Met at position 25 of the entry; also called WT EVL EVH1 domain
T4 sequence (P70429 other isoform, or with tags, fused parts or gaps limits assumed): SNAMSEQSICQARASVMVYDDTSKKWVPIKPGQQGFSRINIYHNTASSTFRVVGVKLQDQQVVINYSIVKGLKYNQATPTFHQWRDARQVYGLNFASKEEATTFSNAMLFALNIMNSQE
Procedure: as §3, §1

[16] = target: T1, ENAH EVH1 domain (monomeric, wild type); assay: BLI, steady state; SUMO-peptide immobilised, EVH1 monomer in solution; remark: listed apart in the source
Procedure: as §1

[17] = target: T1, ENAH EVH1 domain (monomeric, wild type); assay: BLI, steady state; SUMO-peptide immobilised, EVH1 monomer in solution; Table 2 (MassTitr hit validation), not the Table 3 truncation series
Procedure: as §1

[18] = target: T5, EVL EVH1 swapped (residue swapped) (Homo sapiens (Human), UniProt Q9UI08 1-109); assay: BLI, EVL swapped EVH1 domain in solution
T5 construct: also called EVL swapped; residue-swapped EVL EVH1 domain
T5 sequence (Q9UI08 other isoform, or with tags, fused parts or gaps limits assumed): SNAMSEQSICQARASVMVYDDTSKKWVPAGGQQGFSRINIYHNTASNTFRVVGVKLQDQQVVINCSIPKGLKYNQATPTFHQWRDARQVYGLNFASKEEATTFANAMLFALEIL

VASP EVH1 domain [19] = target: T3, VASP EVH1 domain; assay: BLI steady state, immobilised SUMO-PCARE B, EVH1 domain in solution
[20] = target: T4, EVL EVH1 domain (wild type); assay: as above
[21] = target: T4, EVL EVH1 domain (wild type); assay: as above; remark: listed apart in the source

T1 sequence (Q03173 other isoform, or with tags, fused parts or gaps limits assumed): as the sequence (Q03173 other isoform, or with tags, fused parts or gaps limits assumed, stated change not applied) above, with A50R counted along it

B1: ABI1-LPP fusion peptide (designed binder)
peptide: MAGGLNDIFEAQKIEWHEDTGGSSHHHHHHGSGSGSDSEVNQEAKPEVKPEVKPETHINLKVSDGSSEIFFKIKKTTPLRRLMEAFAKRQGKEMDSLTFLYDGIEIQADQTPEDLDMEDNDIIEAHREQIGGSGSGFDDFPPPPPPPPVDYEDLPSISGNFPPPPPL
modifications: biotinylated (BAP tag)
notes: Engineered peptide, tested as a SUMO fusion in BLI
koff [1]: 0.33 s⁻¹ | Kd [2]: 0.76 µM

B2: NHSL1 36mer peptide (peptide)
peptide: MAGGLNDIFEAQKIEWHEDTGGSSHHHHHHGSGSGSDSEVNQEAKPEVKPEVKPETHINLKVSDGSSEIFFKIKKTTPLRRLMEAFAKRQGKEMDSLTFLYDGIEIQADQTPEDLDMEDNDIIEAHREQIGGSGSGADRSPFLPPPPPVTDCSQGSPLPHSPVFPPPPPEAL
modifications: biotinylated (BAP tag)
notes: Tested as a BAP-6xHis-SUMO-peptide fusion in BLI and ITC
Kd [3]: 9.8 µM | Kd [4]: 8.56 µM | -TΔS [5]: -0.28 kcal/mol | ΔG [5]: -6.83 kcal/mol | ΔH [5]: -6.55 kcal/mol | Kd [6]: 8.56 µM | Kd [7]: 55.4 µM | Kd [8]: 8.56 µM | Kd [9]: 55.4 µM

B3: SUMO-ActA (ActA 36-mer peptide fused to SUMO) (peptide)
peptide: MAGGLNDIFEAQKIEWHEDTGGSSHHHHHHGSGSGSDSEVNQEAKPEVKPEVKPETHINLKVSDGSSEIFFKIKKTTPLRRLMEAFAKRQGKEMDSLTFLYDGIEIQADQTPEDLDMEDNDIIEAHREQIGGGFNAPATSEPSSFEFPPPPTEDELEIIRETASSLDS
modifications: biotinylated (BAP tag)
notes: Control peptide used in BLI and ITC; also called ActA peptide
Kd [3]: 7.41 µM | Kd [4]: 5.21 µM | -TΔS [5]: -5.21 kcal/mol | ΔG [5]: -6.99 kcal/mol | ΔH [5]: -1.78 kcal/mol | Kd [8]: 5.21 µM | Kd [9]: 8.02 µM

B4: TENM1 36-mer peptide (peptide)
peptide: MAGGLNDIFEAQKIEWHEDTGGSSHHHHHHGSGSGSDSEVNQEAKPEVKPEVKPETHINLKVSDGSSEIFFKIKKTTPLRRLMEAFAKRQGKEMDSLTFLYDGIEIQADQTPEDLDMEDNDIIEAHREQIGGSGSGGSTQDVQSSPHNQFTFRPLPPPPPPPHACTCARKPP
modifications: biotinylated (BAP tag)
notes: Tested as a biotinylated BAP-6xHis-SUMO-peptide fusion; The text calls it TEN1; it contains both an FP4 and a CXC motif; also called TEN1
Kd [4]: 62.9 µM | Kd [10]: > 60 µM

B5: PCARE-Dual peptide (designed binder)
peptide: MAGGLNDIFEAQKIEWHEDTGGSSHHHHHHGSGSGSDSEVNQEAKPEVKPEVKPETHINLKVSDGSSEIFFKIKKTTPLRRLMEAFAKRQGKEMDSLTFLYDGIEIQADQTPEDLDMEDNDIIEAHREQIGGSGSGNLEHLPPPPMEVLMDKSFASLESGSGSPPPPPF
modifications: biotinylated (BAP tag)
notes: as for B1
Kd [11]: 0.048 µM | koff [1]: 0.045 s⁻¹ | Kd [2]: 0.05 µM | fold tighter binding than PCARE B [2]: ~7 fold | fold slower dissociation than dual-motif peptide LPP [12]: ~100 fold | Kd [13]: 0.048 µM | Kd (VASP EVH1 domain [14]): 28 µM | Kd [15]: 21 µM

B6: ABI1 36mer peptide (peptide)
peptide: MAGGLNDIFEAQKIEWHEDTGGSSHHHHHHGSGSGSDSEVNQEAKPEVKPEVKPETHINLKVSDGSSEIFFKIKKTTPLRRLMEAFAKRQGKEMDSLTFLYDGIEIQADQTPEDLDMEDNDIIEAHREQIGGSGSGFDDFPPPPPPPPVDYEDEEAAVVQYNDPYADGDPAW
modifications: biotinylated (BAP tag)
Kd [16]: 4.01 µM | Kd [17]: 2.44 µM

B7: LPP 36mer peptide (peptide)
peptide: MAGGLNDIFEAQKIEWHEDTGGSSHHHHHHGSGSGSDSEVNQEAKPEVKPEVKPETHINLKVSDGSSEIFFKIKKTTPLRRLMEAFAKRQGKEMDSLTFLYDGIEIQADQTPEDLDMEDNDIIEAHREQIGGSGSGKQPGGEGDFLPPPPPPLDDSSALPSISGNFPPPPPL
modifications: biotinylated (BAP tag)
notes: as for B2
Kd [3]: 8.13 µM | koff [1]: 1.8 s⁻¹ | Kd [4]: 4.03 µM | -TΔS [5]: -0.504 kcal/mol | ΔG [5]: -6.94 kcal/mol | ΔH [5]: -6.44 kcal/mol | Kd [6]: 4.03 µM | Kd [7]: 61.9 µM | Kd [8]: 4.03 µM | Kd [9]: 61.9 µM

B8: PCARE B (PCARE826-848) (peptide)
peptide: MAGGLNDIFEAQKIEWHEDTGGSSHHHHHHGSGSGSDSEVNQEAKPEVKPEVKPETHINLKVSDGSSEIFFKIKKTTPLRRLMEAFAKRQGKEMDSLTFLYDGIEIQADQTPEDLDMEDNDIIEAHREQIGGSGSGNLEHLPPPPMEVLMDKSFASLES
modifications: biotinylated (BAP tag)
Kd [18]: 0.35 µM | Kd (VASP EVH1 domain [19]): 42 µM | Kd [20]: 22 µM | Kd [21]: 22 µM

Reference: patent US12552834 (MIT, dated 2026)
